In paper PMC5976803, “Engineered membrane protein antigens successfully induce antibodies against extracellular regions of claudin-5” (Scientific Reports, 2018):

Legend:
[1] = biological target: T1, human claudin-3 expressed in HT-1080 cells (Homo sapiens (Human)., UniProt O15551); experiment: flow cytometry on cells; HT-1080 cells stably expressing CLDNs or CLDN-5 mutants, detached with 0.05% trypsin/0.02% EDTA; 5 µg/mL mAb; fluorescence-conjugated goat anti-mouse IgG; settings: one partner purified
T1 construct: claudin-3, human; also called human CLDN-3; source: HT-1080 cells, stably expressing

[2] = biological target: T2, human claudin-4 expressed in HT-1080 cells (Homo sapiens (Human)., UniProt O14493); experiment: as above; settings: one partner purified
T2 construct: claudin-4, human; also called human CLDN-4; source: HT-1080 cells, stably expressing

[3] = biological target: T3, human claudin-6 expressed in HT-1080 cells (Homo sapiens (Human)., UniProt P56747); experiment: as above; settings: one partner purified
T3 construct: claudin-6, human; also called human CLDN-6; source: HT-1080 cells, stably expressing

[4] = biological target: T4, human claudin-7 expressed in HT-1080 cells (Homo sapiens (Human)., UniProt O95471); experiment: as above; settings: one partner purified
T4 construct: claudin-7, human; also called human CLDN-7; source: HT-1080 cells, stably expressing

[5] = biological target: T5, mouse claudin-5 expressed in HT-1080 cells (Mus musculus (Mouse)., UniProt O54942); experiment: as above; settings: one partner purified
T5 construct: claudin-5, mouse; The TEER assays used MDCKII cells expressing mouse CLDN-5; also called mouse CLDN-5; mCLDN-5; source: HT-1080 cells, stably expressing

[6] = biological target: T6, human claudin-1 expressed in HT-1080 cells (Homo sapiens (Human)., UniProt O95832); experiment: as above; settings: one partner purified
T6 construct: claudin-1, human; also called human CLDN-1; source: HT-1080 cells, stably expressing

[7] = biological target: T7, human claudin-2 expressed in HT-1080 cells (Homo sapiens (Human)., UniProt P57739); experiment: as above; settings: one partner purified
T7 construct: claudin-2, human; also called human CLDN-2; source: HT-1080 cells, stably expressing

[8] = biological target: T8, human claudin-5 expressed in HT-1080 cells (Homo sapiens (Human)., UniProt O00501); experiment: flow cytometry on cells; HT-1080/hCLDN-5 cells with purified mAb at 0.0024–40 µg/mL; mean fluorescence intensity fitted to Y = Bmax • X/(Kd + X); apparent dissociation constant; three independent experiments; settings: one partner purified
T8 construct: claudin-5, human; In the western blot the same protein stood denatured in the cell lysate; The TEER assays used MDCKII cells expressing human CLDN-5; also called human CLDN-5; hCLDN-5; source: HT-1080 cells, stably expressing; on cells and in lysate

[9] = biological target: T8, human claudin-5 expressed in HT-1080 …; experiment: flow cytometry on cells; HT-1080 cells stably expressing CLDNs or CLDN-5 mutants, detached with 0.05% trypsin/0.02% EDTA; 5 µg/mL mAb; fluorescence-conjugated goat anti-mouse IgG; settings: one partner purified
[10] = biological target: T9, AGIA-tagged human CLDN-5, cell-free synthesized proteoliposome (Homo sapiens, UniProt O00501); experiment: ELISA; cell-free synthesized AGIA-tagged CLDN proteoliposomes immobilised on a microtiter plate overnight at 4 °C; mAb 10 µg/mL in 5% skimmed milk/T-TBS, 1 h at room temperature; HRP anti-mouse IgG + IgM; settings: both partners purified
T9 construct: claudin-5, human; codon-converted synthetic gene; The vector pEU-E01-AGIA-GW puts a start codon and the AGIA tag at the 5′-end of the cassette, though the label reads hCLDN-5-AGIA; also called hCLDN-5-AGIA; cell-free synthesized CLDN-5; source: wheat cell-free synthesis on liposomes, proteoliposomes collected by centrifugation; not shown: AGIA, N-terminal, kept
T9 sequence (O00501 whole entry): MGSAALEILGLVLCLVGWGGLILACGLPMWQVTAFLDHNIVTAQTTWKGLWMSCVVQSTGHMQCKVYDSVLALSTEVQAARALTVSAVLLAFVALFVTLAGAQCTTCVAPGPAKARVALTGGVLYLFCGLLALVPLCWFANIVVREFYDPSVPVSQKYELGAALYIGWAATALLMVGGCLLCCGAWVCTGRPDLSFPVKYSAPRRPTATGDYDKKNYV

T7 sequence (P57739 whole entry): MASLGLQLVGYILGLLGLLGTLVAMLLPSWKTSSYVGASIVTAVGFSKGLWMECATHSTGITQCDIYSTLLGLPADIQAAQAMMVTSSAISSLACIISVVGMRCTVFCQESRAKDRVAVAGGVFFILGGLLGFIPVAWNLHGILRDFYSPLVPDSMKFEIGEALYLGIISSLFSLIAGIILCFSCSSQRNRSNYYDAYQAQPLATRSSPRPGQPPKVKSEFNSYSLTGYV
T4 sequence (O95471 whole entry): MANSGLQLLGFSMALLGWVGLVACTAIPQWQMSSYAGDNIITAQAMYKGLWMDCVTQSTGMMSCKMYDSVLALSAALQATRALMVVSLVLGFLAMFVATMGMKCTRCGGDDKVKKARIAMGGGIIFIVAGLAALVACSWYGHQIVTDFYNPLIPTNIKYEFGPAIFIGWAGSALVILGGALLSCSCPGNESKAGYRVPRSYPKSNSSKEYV
T1 sequence (O15551 whole entry): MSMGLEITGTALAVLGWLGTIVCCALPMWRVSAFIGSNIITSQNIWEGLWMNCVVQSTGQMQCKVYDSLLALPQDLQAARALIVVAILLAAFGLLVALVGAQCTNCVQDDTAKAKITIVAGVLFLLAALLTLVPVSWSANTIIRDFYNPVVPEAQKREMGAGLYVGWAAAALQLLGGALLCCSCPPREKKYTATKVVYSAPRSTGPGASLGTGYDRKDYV
T3 sequence (P56747 whole entry): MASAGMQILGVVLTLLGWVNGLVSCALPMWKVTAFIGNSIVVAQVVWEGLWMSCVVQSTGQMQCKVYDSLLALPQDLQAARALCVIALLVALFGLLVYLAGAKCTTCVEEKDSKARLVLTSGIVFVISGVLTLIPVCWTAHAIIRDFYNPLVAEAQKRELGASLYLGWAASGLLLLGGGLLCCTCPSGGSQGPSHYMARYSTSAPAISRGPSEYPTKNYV
T8 sequence (O00501 whole entry): as the sequence (O00501 whole entry) above
T5 sequence (O54942 whole entry): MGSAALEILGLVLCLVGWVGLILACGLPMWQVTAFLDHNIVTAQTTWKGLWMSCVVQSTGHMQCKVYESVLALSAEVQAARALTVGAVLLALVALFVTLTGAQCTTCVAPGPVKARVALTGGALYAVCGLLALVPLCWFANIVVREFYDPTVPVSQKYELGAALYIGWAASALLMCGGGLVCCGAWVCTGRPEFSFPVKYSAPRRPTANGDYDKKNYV
T6 sequence (O95832 whole entry): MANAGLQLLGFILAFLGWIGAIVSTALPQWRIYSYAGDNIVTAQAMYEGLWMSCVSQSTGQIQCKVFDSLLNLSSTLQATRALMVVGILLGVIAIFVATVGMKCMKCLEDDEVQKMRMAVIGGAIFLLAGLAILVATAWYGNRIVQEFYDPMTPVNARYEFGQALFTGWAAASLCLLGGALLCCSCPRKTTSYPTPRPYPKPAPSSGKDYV

binding result [1]	binding result [2]	binding result [3]	binding result [4]	binding result [5]	binding result [6]	binding result [7]	Kd [8] [nM]	binding result [9]	binding result [10]	Binder
no binding (tested: 5 µg/mL)	no binding (tested: 5 µg/mL)	no binding (tested: 5 µg/mL)	no binding (tested: 5 µg/mL)	no binding (tested: 5 µg/mL)	no binding (tested: 5 µg/mL)	no binding (tested: 5 µg/mL)	7.37	–	–	anti-CLDN-5 ECR mAb clone 2B12 (antibody, V domains shown, source: hybridoma from an Antigen2-immunized BXSB mouse; ascitic fluid, purified (Protein G Sepharose); also reconstituted as recombinant antibody) VH: QVQLQQSGAELARPGASVKLSCKASGYTFTRFGMSWVKQRTGQGLEWIGEIYPGSGDTYYSENFKGKATLTADKSSGTAYMELRSLTSEDSAVYFCARWGIYYGNPYAMDYWGQGTSVTVSS VL: DIVMTQAAPSVPVTPGESVSISCRSSKSLLHSNGNTYLYWFLQRPGQSPQLLIYRMSNLASGVPDRFSGSGSGTAFTLRISRVEAEDVGVYYCLQHLEYPFTFGSGTKLEIK
no binding (tested: 5 µg/mL)	no binding (tested: 5 µg/mL)	no binding (tested: 5 µg/mL)	no binding (tested: 5 µg/mL)	no binding (tested: 5 µg/mL)	no binding (tested: 5 µg/mL)	no binding (tested: 5 µg/mL)	–	binds	binds	anti-CLDN-5 ECR mAb clone 1B3 (antibody, V domains shown, source: hybridoma from an Antigen1-immunized BXSB mouse; ascitic fluid, purified (Protein G Sepharose); also reconstituted as recombinant antibody) VH: QIQLVQSGPELKKPGETVKISCKASGYSFTAHGMSWVKQAPGKGLKWMGWINTYSGVPAYADDFKGRFAFSLETSPSTAFLQINNLKNEDTATYFCTRSHYDRKFGYWGQGTLVTVSA VL: QAVVTQESALTTSPGETVTLTCRSSTGAVTTSNYANWVQEKPDHLFTGLIGDTNNRAPGVPARFSGSLIGDKAALTITGAQTGDEAIYFCALWYSNLWVFGGGTKLTVR
no binding (tested: 5 µg/mL)	no binding (tested: 5 µg/mL)	no binding (tested: 5 µg/mL)	no binding (tested: 5 µg/mL)	no binding (tested: 5 µg/mL)	no binding (tested: 5 µg/mL)	no binding (tested: 5 µg/mL)	–	binds	binds	anti-CLDN-5 ECR mAb clone 1D1 (antibody, V domains shown, source: hybridoma from an Antigen2-immunized BXSB mouse; ascitic fluid, purified (Protein G Sepharose); also reconstituted as recombinant antibody) VH: QVQLQQPGAEHVKPGASVKLSCKASGYTFTTYWIHWVKQRPGRGLEWIGRIAPNSGGTKYNENFKSKATLTVDRPSTTAYMQLSGLTSEDSAVYYCARWDFTFGTNLDYWGQGTTLTVSS VL: DIVMTQSQKFMSTSVGDRVSITCKASQNVRTAVAWYQQKPGQSPKALIFLASNRHTGVPDRFTGSGSGTDFTLTITNVQSEDLADYFCLQHWTYPYTFGGGTKLEIK
no binding (tested: 5 µg/mL)	no binding (tested: 5 µg/mL)	no binding (tested: 5 µg/mL)	no binding (tested: 5 µg/mL)	no binding (tested: 5 µg/mL)	no binding (tested: 5 µg/mL)	no binding (tested: 5 µg/mL)	–	binds	binds	anti-CLDN-5 ECR mAb clone 2B1 (antibody, V domains shown, source: hybridoma from an Antigen2-immunized BXSB mouse; ascitic fluid, purified (Protein G Sepharose); also reconstituted as recombinant antibody) VH: QVQLQQPGAELVKPGASVKLSCKASGYTFTTFWIHWVKQRPGRGLEWIGRIAPYSGGTTYNEKFKSKATLTVDRPSTTAYMQLISLTSEDSAVYYCARWDFTYGSNLDYWGQGTTLTVSS VL: DIVMTQSQKFMSTSVGDRVSIPCKASQNVRTAVAWYQQKPGQSPKALIYLASNRHTGVPDRFTGSGSGTDFTLTISNVQSEDLADYFCLGHWDYPYTFGGGTKLEIK
